# Data taken from the Human Domainome abundance scans (Beltran et al. 2025).
# ± gives the uncertainty stated by the source.
# B1: COUP transcription factor 1, residues 83 to 159; numbered along this chain, P10589 (parent)
# chain: HIECVVCGDKSSGKHYGQFTCEGCKSFFKRSVRRNLTYTCRANRNCPIDQHHRNQCQYCRLKKCLKVGMRREAVQRG
# Variants of: B1
# Assay: abundance fitness (aPCA) (normalised: wild type 0, dead -1); higher = more abundant; growth selection in yeast, the domain comes from the species named
# Settings: Homo sapiens
row,Variant,abundance fitness
1,HIECVVCGNKSSGKHYGQFTCEGCKSFFKRSVRRNLTYTCRANRNCPIDQHHRNQCQYCRLKKCLKVGMRREAVQRG [D9N],-0.099 ± 0.15
2,HIECVVCGQKSSGKHYGQFTCEGCKSFFKRSVRRNLTYTCRANRNCPIDQHHRNQCQYCRLKKCLKVGMRREAVQRG [D9Q],0.104 ± 0.12
3,HIECVVCGIKSSGKHYGQFTCEGCKSFFKRSVRRNLTYTCRANRNCPIDQHHRNQCQYCRLKKCLKVGMRREAVQRG [D9I],-0.203 ± 0.17
4,HIECVVCGVKSSGKHYGQFTCEGCKSFFKRSVRRNLTYTCRANRNCPIDQHHRNQCQYCRLKKCLKVGMRREAVQRG [D9V],-0.304 ± 0.072
5,HIECVVCGMKSSGKHYGQFTCEGCKSFFKRSVRRNLTYTCRANRNCPIDQHHRNQCQYCRLKKCLKVGMRREAVQRG [D9M],0.065 ± 0.081
6,HIECVVCGCKSSGKHYGQFTCEGCKSFFKRSVRRNLTYTCRANRNCPIDQHHRNQCQYCRLKKCLKVGMRREAVQRG [D9C],-0.625 ± 0.46
7,HIECVVCGHKSSGKHYGQFTCEGCKSFFKRSVRRNLTYTCRANRNCPIDQHHRNQCQYCRLKKCLKVGMRREAVQRG [D9H],-0.636 ± 0.27
8,HIECVVCGSKSSGKHYGQFTCEGCKSFFKRSVRRNLTYTCRANRNCPIDQHHRNQCQYCRLKKCLKVGMRREAVQRG [D9S],-0.02 ± 0.075
9,HIECVVCGPKSSGKHYGQFTCEGCKSFFKRSVRRNLTYTCRANRNCPIDQHHRNQCQYCRLKKCLKVGMRREAVQRG [D9P],-0.863 ± 0.24
10,HIECVVCGWKSSGKHYGQFTCEGCKSFFKRSVRRNLTYTCRANRNCPIDQHHRNQCQYCRLKKCLKVGMRREAVQRG [D9W],-0.14 ± 0.076
11,HIECVVCGTKSSGKHYGQFTCEGCKSFFKRSVRRNLTYTCRANRNCPIDQHHRNQCQYCRLKKCLKVGMRREAVQRG [D9T],-0.047 ± 0.092
12,HIECVVCGFKSSGKHYGQFTCEGCKSFFKRSVRRNLTYTCRANRNCPIDQHHRNQCQYCRLKKCLKVGMRREAVQRG [D9F],-0.045 ± 0.29
13,HIECVVCGGKSSGKHYGQFTCEGCKSFFKRSVRRNLTYTCRANRNCPIDQHHRNQCQYCRLKKCLKVGMRREAVQRG [D9G],-0.057 ± 0.049
14,HIECVVCGKKSSGKHYGQFTCEGCKSFFKRSVRRNLTYTCRANRNCPIDQHHRNQCQYCRLKKCLKVGMRREAVQRG [D9K],-0.083 ± 0.16
15,HIECVVCGLKSSGKHYGQFTCEGCKSFFKRSVRRNLTYTCRANRNCPIDQHHRNQCQYCRLKKCLKVGMRREAVQRG [D9L],-0.234 ± 0.084
16,HIECVVCGRKSSGKHYGQFTCEGCKSFFKRSVRRNLTYTCRANRNCPIDQHHRNQCQYCRLKKCLKVGMRREAVQRG [D9R],-0.018 ± 0.067
17,HIECVVCGAKSSGKHYGQFTCEGCKSFFKRSVRRNLTYTCRANRNCPIDQHHRNQCQYCRLKKCLKVGMRREAVQRG [D9A],-0.128 ± 0.066
18,HIECVVCGYKSSGKHYGQFTCEGCKSFFKRSVRRNLTYTCRANRNCPIDQHHRNQCQYCRLKKCLKVGMRREAVQRG [D9Y],-0.381 ± 0.2
19,HIECVVCGDGSSGKHYGQFTCEGCKSFFKRSVRRNLTYTCRANRNCPIDQHHRNQCQYCRLKKCLKVGMRREAVQRG [K10G],-0.114 ± 0.037
20,HIECVVCGDQSSGKHYGQFTCEGCKSFFKRSVRRNLTYTCRANRNCPIDQHHRNQCQYCRLKKCLKVGMRREAVQRG [K10Q],0.022 ± 0.074
21,HIECVVCGDYSSGKHYGQFTCEGCKSFFKRSVRRNLTYTCRANRNCPIDQHHRNQCQYCRLKKCLKVGMRREAVQRG [K10Y],0.045 ± 0.098
22,HIECVVCGDMSSGKHYGQFTCEGCKSFFKRSVRRNLTYTCRANRNCPIDQHHRNQCQYCRLKKCLKVGMRREAVQRG [K10M],-0.067 ± 0.059
23,HIECVVCGDCSSGKHYGQFTCEGCKSFFKRSVRRNLTYTCRANRNCPIDQHHRNQCQYCRLKKCLKVGMRREAVQRG [K10C],-0.105 ± 0.075
24,HIECVVCGDSSSGKHYGQFTCEGCKSFFKRSVRRNLTYTCRANRNCPIDQHHRNQCQYCRLKKCLKVGMRREAVQRG [K10S],-0.153 ± 0.051

row,Variant,abundance fitness
1,HIECVVCGDRSSGKHYGQFTCEGCKSFFKRSVRRNLTYTCRANRNCPIDQHHRNQCQYCRLKKCLKVGMRREAVQRG [K10R],-0.214 ± 0.049
2,HIECVVCGDESSGKHYGQFTCEGCKSFFKRSVRRNLTYTCRANRNCPIDQHHRNQCQYCRLKKCLKVGMRREAVQRG [K10E],-0.104 ± 0.06
3,HIECVVCGDWSSGKHYGQFTCEGCKSFFKRSVRRNLTYTCRANRNCPIDQHHRNQCQYCRLKKCLKVGMRREAVQRG [K10W],-0.233 ± 0.053
4,HIECVVCGDVSSGKHYGQFTCEGCKSFFKRSVRRNLTYTCRANRNCPIDQHHRNQCQYCRLKKCLKVGMRREAVQRG [K10V],-0.235 ± 0.048
5,HIECVVCGDDSSGKHYGQFTCEGCKSFFKRSVRRNLTYTCRANRNCPIDQHHRNQCQYCRLKKCLKVGMRREAVQRG [K10D],0.16 ± 0.077
6,HIECVVCGDTSSGKHYGQFTCEGCKSFFKRSVRRNLTYTCRANRNCPIDQHHRNQCQYCRLKKCLKVGMRREAVQRG [K10T],0.056 ± 0.06
7,HIECVVCGDLSSGKHYGQFTCEGCKSFFKRSVRRNLTYTCRANRNCPIDQHHRNQCQYCRLKKCLKVGMRREAVQRG [K10L],-0.313 ± 0.056
8,HIECVVCGDPSSGKHYGQFTCEGCKSFFKRSVRRNLTYTCRANRNCPIDQHHRNQCQYCRLKKCLKVGMRREAVQRG [K10P],0.051 ± 0.071
9,HIECVVCGDFSSGKHYGQFTCEGCKSFFKRSVRRNLTYTCRANRNCPIDQHHRNQCQYCRLKKCLKVGMRREAVQRG [K10F],-0.029 ± 0.11
10,HIECVVCGDASSGKHYGQFTCEGCKSFFKRSVRRNLTYTCRANRNCPIDQHHRNQCQYCRLKKCLKVGMRREAVQRG [K10A],-0.332 ± 0.06
11,HIECVVCGDHSSGKHYGQFTCEGCKSFFKRSVRRNLTYTCRANRNCPIDQHHRNQCQYCRLKKCLKVGMRREAVQRG [K10H],-0.288 ± 0.21
12,HIECVVCGDKSAGKHYGQFTCEGCKSFFKRSVRRNLTYTCRANRNCPIDQHHRNQCQYCRLKKCLKVGMRREAVQRG [S12A],-0.018 ± 0.05
13,HIECVVCGDKSLGKHYGQFTCEGCKSFFKRSVRRNLTYTCRANRNCPIDQHHRNQCQYCRLKKCLKVGMRREAVQRG [S12L],-0.247 ± 0.049
14,HIECVVCGDKSTGKHYGQFTCEGCKSFFKRSVRRNLTYTCRANRNCPIDQHHRNQCQYCRLKKCLKVGMRREAVQRG [S12T],0.165 ± 0.047
15,HIECVVCGDKSCGKHYGQFTCEGCKSFFKRSVRRNLTYTCRANRNCPIDQHHRNQCQYCRLKKCLKVGMRREAVQRG [S12C],-0.578 ± 0.14
16,HIECVVCGDKSIGKHYGQFTCEGCKSFFKRSVRRNLTYTCRANRNCPIDQHHRNQCQYCRLKKCLKVGMRREAVQRG [S12I],-0.027 ± 0.068
17,HIECVVCGDKSEGKHYGQFTCEGCKSFFKRSVRRNLTYTCRANRNCPIDQHHRNQCQYCRLKKCLKVGMRREAVQRG [S12E],0.1 ± 0.06
18,HIECVVCGDKSMGKHYGQFTCEGCKSFFKRSVRRNLTYTCRANRNCPIDQHHRNQCQYCRLKKCLKVGMRREAVQRG [S12M],-0.113 ± 0.063
19,HIECVVCGDKSHGKHYGQFTCEGCKSFFKRSVRRNLTYTCRANRNCPIDQHHRNQCQYCRLKKCLKVGMRREAVQRG [S12H],-0.096 ± 0.088
20,HIECVVCGDKSPGKHYGQFTCEGCKSFFKRSVRRNLTYTCRANRNCPIDQHHRNQCQYCRLKKCLKVGMRREAVQRG [S12P],-0.094 ± 0.059
21,HIECVVCGDKSNGKHYGQFTCEGCKSFFKRSVRRNLTYTCRANRNCPIDQHHRNQCQYCRLKKCLKVGMRREAVQRG [S12N],0.003 ± 0.065
22,HIECVVCGDKSGGKHYGQFTCEGCKSFFKRSVRRNLTYTCRANRNCPIDQHHRNQCQYCRLKKCLKVGMRREAVQRG [S12G],0.021 ± 0.048
23,HIECVVCGDKSVGKHYGQFTCEGCKSFFKRSVRRNLTYTCRANRNCPIDQHHRNQCQYCRLKKCLKVGMRREAVQRG [S12V],0.076 ± 0.043
24,HIECVVCGDKSQGKHYGQFTCEGCKSFFKRSVRRNLTYTCRANRNCPIDQHHRNQCQYCRLKKCLKVGMRREAVQRG [S12Q],0.007 ± 0.064

row,Variant,abundance fitness
1,HIECVVCGDKSWGKHYGQFTCEGCKSFFKRSVRRNLTYTCRANRNCPIDQHHRNQCQYCRLKKCLKVGMRREAVQRG [S12W],-0.675 ± 0.12
2,HIECVVCGDKSKGKHYGQFTCEGCKSFFKRSVRRNLTYTCRANRNCPIDQHHRNQCQYCRLKKCLKVGMRREAVQRG [S12K],-0.194 ± 0.074
3,HIECVVCGDKSYGKHYGQFTCEGCKSFFKRSVRRNLTYTCRANRNCPIDQHHRNQCQYCRLKKCLKVGMRREAVQRG [S12Y],-0.489 ± 0.11
4,HIECVVCGDKSRGKHYGQFTCEGCKSFFKRSVRRNLTYTCRANRNCPIDQHHRNQCQYCRLKKCLKVGMRREAVQRG [S12R],-0.205 ± 0.051
5,HIECVVCVDKSSGKHYGQFTCEGCKSFFKRSVRRNLTYTCRANRNCPIDQHHRNQCQYCRLKKCLKVGMRREAVQRG [G8V],-0.791 ± 0.17
6,HIECVVCTDKSSGKHYGQFTCEGCKSFFKRSVRRNLTYTCRANRNCPIDQHHRNQCQYCRLKKCLKVGMRREAVQRG [G8T],-0.237 ± 0.19
7,HIECVVCWDKSSGKHYGQFTCEGCKSFFKRSVRRNLTYTCRANRNCPIDQHHRNQCQYCRLKKCLKVGMRREAVQRG [G8W],-0.218 ± 0.11
8,HIECVVCGDKVSGKHYGQFTCEGCKSFFKRSVRRNLTYTCRANRNCPIDQHHRNQCQYCRLKKCLKVGMRREAVQRG [S11V],-0.399 ± 0.053
9,HIECVVCGDKWSGKHYGQFTCEGCKSFFKRSVRRNLTYTCRANRNCPIDQHHRNQCQYCRLKKCLKVGMRREAVQRG [S11W],-0.236 ± 0.064
10,HIECVVCGDKQSGKHYGQFTCEGCKSFFKRSVRRNLTYTCRANRNCPIDQHHRNQCQYCRLKKCLKVGMRREAVQRG [S11Q],0.01 ± 0.085
11,HIECVVCGDKYSGKHYGQFTCEGCKSFFKRSVRRNLTYTCRANRNCPIDQHHRNQCQYCRLKKCLKVGMRREAVQRG [S11Y],0.177 ± 0.15
12,HIECVVCGDKASGKHYGQFTCEGCKSFFKRSVRRNLTYTCRANRNCPIDQHHRNQCQYCRLKKCLKVGMRREAVQRG [S11A],-0.184 ± 0.056
13,HIECVVCGDKFSGKHYGQFTCEGCKSFFKRSVRRNLTYTCRANRNCPIDQHHRNQCQYCRLKKCLKVGMRREAVQRG [S11F],0.085 ± 0.13
14,HIECVVCGDKMSGKHYGQFTCEGCKSFFKRSVRRNLTYTCRANRNCPIDQHHRNQCQYCRLKKCLKVGMRREAVQRG [S11M],-0.101 ± 0.099
15,HIECVVCGDKNSGKHYGQFTCEGCKSFFKRSVRRNLTYTCRANRNCPIDQHHRNQCQYCRLKKCLKVGMRREAVQRG [S11N],-0.155 ± 0.18
16,HIECVVCGDKRSGKHYGQFTCEGCKSFFKRSVRRNLTYTCRANRNCPIDQHHRNQCQYCRLKKCLKVGMRREAVQRG [S11R],-0.377 ± 0.06
17,HIECVVCGDKTSGKHYGQFTCEGCKSFFKRSVRRNLTYTCRANRNCPIDQHHRNQCQYCRLKKCLKVGMRREAVQRG [S11T],-0.044 ± 0.082
18,HIECVVCGDKHSGKHYGQFTCEGCKSFFKRSVRRNLTYTCRANRNCPIDQHHRNQCQYCRLKKCLKVGMRREAVQRG [S11H],0.314 ± 0.3
19,HIECVVCGDKLSGKHYGQFTCEGCKSFFKRSVRRNLTYTCRANRNCPIDQHHRNQCQYCRLKKCLKVGMRREAVQRG [S11L],-0.281 ± 0.068
20,HIECVVCGDKESGKHYGQFTCEGCKSFFKRSVRRNLTYTCRANRNCPIDQHHRNQCQYCRLKKCLKVGMRREAVQRG [S11E],-0.314 ± 0.075
21,HIECVVCGDKDSGKHYGQFTCEGCKSFFKRSVRRNLTYTCRANRNCPIDQHHRNQCQYCRLKKCLKVGMRREAVQRG [S11D],-0.28 ± 0.15
22,HIECVVCGDKCSGKHYGQFTCEGCKSFFKRSVRRNLTYTCRANRNCPIDQHHRNQCQYCRLKKCLKVGMRREAVQRG [S11C],0.182 ± 0.071
23,HIECVVCGDKGSGKHYGQFTCEGCKSFFKRSVRRNLTYTCRANRNCPIDQHHRNQCQYCRLKKCLKVGMRREAVQRG [S11G],-0.071 ± 0.033
